Among the data in article PMC9671922, “TOPOVIBL-REC114 interaction regulates meiotic DNA double-strand breaks” (Nature Communications, 2022) are Kd values, retold here.

The assay deals with T1, REC114^15–159 (REC114 PH domain) (mouse, UniProt Q9CWH4 15-159).
T1 construct: Expressed from pProEXHTb; His-tag cleaved with TEV protease; source: E. coli BL21-Gold (DE3), purified (Ni2+ resin, TEV cleavage, second Ni2+ column, Superdex 200)
T1 sequence (looked up): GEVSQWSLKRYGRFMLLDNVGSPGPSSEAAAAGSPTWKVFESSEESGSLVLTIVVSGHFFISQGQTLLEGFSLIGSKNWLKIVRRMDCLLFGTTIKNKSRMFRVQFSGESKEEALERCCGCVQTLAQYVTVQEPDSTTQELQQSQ
Nature of the assay: ITC; 25 °C, ITC200; 0.3-1.8 mM TOPOVIBL injected into 30-40 µM REC114 in the cell; 20 mM Tris pH 8.0, 100 mM NaCl, 5% glycerol, 5 mM β-mercaptoethanol; one-site model. The following applies: both partners purified. Background: In ITC the heat of successive injections is recorded.

B1: TOPOVIBL^559–576 peptide (peptide)
peptide: EDLWLQEVSNLSEWLNPG
notes: also called TOPOVIBL peptide; TOPOVIBL C-terminal peptide
The Kd is the concentration at which binding is half-saturated. A lower Kd goes with higher affinity. B1 came in with a dissociation constant Kd of 3.3 µM.

B2: 6xHis-TOPOVIBL C-terminal domain (CTD; 452–579) (domain or fragment, mouse, UniProt J3QMY9 452-579, looked up)
chain: SCDTEQHLTPEKNISAQNTKDQHKNIAQEFPEESIGQAENKRPKRGSPNHGREESRVLGSARDRSPPKSATRDRELTEVSLTARGSQTQAAHGRAQAAEAASPAGGLEDLWLQEVSNLSEWLNPGHRS
notes: Cloned in pProEXHTb; also called TOPOVIBL CTD; source: E. coli BL21Gold (DE3), purified (Ni-Chelating Sepharose, Superdex 200)
Consider B2, for which binding was characterised by a dissociation constant (Kd) of 1.2 µM.
